According to publication PMC3350560:

B1: probe C (oligo C) (dsDNA)
DNA 1: GGCAAACAGCAGGAATTCCTAAAAAATTCGAAAAGGTTTCT
DNA 2: AGAAACCTTTTCGAATTTTTTAGGAATTCCTGCTGTTTGCC
B2: probe D (oligo D) (dsDNA)
DNA 1: CAATGATTTGCGTTTTAG
DNA 2: CTAAAACGCAAATCATTG
B3: probe A (oligo A) (dsDNA)
DNA 1: GATTTGCGTTTTAGAGGCTATAGGCTCTTGAAACTCTCCA
DNA 2: TGGAGAGTTTCAAGAGCCTATAGCCTCTAAAACGCAAATC

Biological target: rCKAP4 (recombinant CKAP4 extracellular domain) (UniProt Q07065 126-501)
Assay: EMSA

Sequence of rCKAP4 (recombinant CKAP4 extracellular domain) (Q07065 126-501): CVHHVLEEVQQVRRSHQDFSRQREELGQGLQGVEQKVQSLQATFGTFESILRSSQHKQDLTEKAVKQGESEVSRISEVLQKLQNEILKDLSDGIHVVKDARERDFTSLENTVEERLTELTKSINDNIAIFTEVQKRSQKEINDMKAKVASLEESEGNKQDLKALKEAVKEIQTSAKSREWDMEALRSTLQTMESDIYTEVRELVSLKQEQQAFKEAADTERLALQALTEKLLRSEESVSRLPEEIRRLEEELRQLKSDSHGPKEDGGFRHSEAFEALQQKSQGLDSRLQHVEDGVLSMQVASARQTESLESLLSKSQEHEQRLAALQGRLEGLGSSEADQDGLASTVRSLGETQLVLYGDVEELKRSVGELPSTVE

Binder	binding result
B1	no binding
B2	no binding
B3	binds
